Measurements as given in patent publication US20050196403A1 (published 2005).
Values joined by “and” are separate entries in the source; they are usually repeats but may differ in a detail not shown here. Equal values may be shown once. One block for each binder: values may come before it. Non-standard residues stand in square brackets, D forms with d. No end group written: not given here. Abu = CC[C@H](N)C(=O)O

Assays:
HLA-B*0702 [1] = target: HLA-B*0702 (Human); test: competition vs 125I probe, purified HLA
HLA-B*5101 = HLA-B*5101 (Human); test: competition vs 125I probe, purified HLA
HLA-B*0702 [2] = target: HLA-B*0702 (Human)
HLA-A*6801 = HLA-A*6801 (human); test: competition with 125I probe peptide, purified HLA class I
HLA-A*0301 = HLA-A*0301 (human); test: as above
HLA-A*1101 = HLA-A*1101 (human); test: as above
HLA-B*5401 = HLA-B*5401 (Human); test: competition vs 125I probe, purified HLA
HLA-A*0101 = HLA-A*0101 (human); test: competition with 125I probe peptide, purified HLA class I
HLA-A*0206 [3] = target: HLA-A*0206 (human); test: as above
HLA-A*0201 = HLA-A*0201 (human); test: as above
HLA-A*0206 [4] = target: HLA-A*0206 (Human); test: competition vs 125I probe, purified HLA
HLA-A*3101 = HLA-A*3101 (human); test: competition with 125I probe peptide, purified HLA class I
HLA-A*0203 = HLA-A*0203 (Human); test: competition vs 125I probe, purified HLA
HLA-B*5301 = HLA-B*5301 (Human); test: competition vs 125I probe, purified HLA
HLA-B*3501 = HLA-B*3501 (Human); test: competition vs 125I probe, purified HLA

Binder: FPPGSTKRAL [48.0196 FPPGSTKRAL (p53)]
IC50 (HLA-B*0702 [1]): 0.79 nM
IC50 (HLA-B*5101): 6110 nM

Binder: FPALNKMFCQL [48.0234 FPALNKMFCQL (p53.127.F1)]
IC50 (HLA-B*0702 [1]): 0.052 nM
IC50 (HLA-B*5101): 5500 nM
IC50 (HLA-B*5401): 500 nM

Binder: FPQPKKKPI [48.0127 FPQPKKKPI (p53)]
IC50 (HLA-B*0702 [1]): 0.61 nM

Binder: FPQPKKKPL [48.0128 FPQPKKKPL (p53)]
IC50 (HLA-B*0702 [1]): 2.3 nM

Binder: GTDKSVTCTY [57.0126 GTDKSVTCTY p53.117.D3]
IC50 (HLA-A*0101): 42.4 nM

Binder: CTTIHYNYM [1329.04 CTTIHYNYM p53.229]
IC50 (HLA-A*0206 [3]): 561 nM

Binder: FPGTRVRAI [48.0123 FPGTRVRAI (p53.152.F1)]
IC50 (HLA-B*0702 [1]): 1.1 nM
IC50 (HLA-B*5101): 663 nM

Binder: FPALNKMF [48.0055 FPALNKMF (p53.127.F1)]
IC50 (HLA-B*5301): 6200 nM
IC50 (HLA-B*0702 [1]): 0.025 nM
IC50 (HLA-B*3501): 3000 nM

Next, values leading:

binding affinity ratio (IC50 of standard peptide / IC50 of test peptide) (HLA-B*0702 [2]): 0.0044 ratio
Binder: SPLPSQAM [p53 peptide SPLPSQAM (position 33, 8 amino acids)]

IC50 (HLA-A*6801): 14.8 nM
IC50 (HLA-A*0301): 25 nM
IC50 (HLA-A*1101): 8.3 nM
Binder: BVYSPALNR (B at position 1 is alpha-amino butyric acid (in place of cysteine)) [1371.17 BVYSPALNR p53.124.B1V2R9]

binding affinity ratio (IC50 of standard peptide / IC50 of test peptide) (HLA-B*0702 [2]): 0.0055 ratio
Binder: KPLDGEYFTL [p53 peptide KPLDGEYFTL (position 321, 10 amino acids)]

IC50 (HLA-A*0201): 41.7 nM and 27.8 nM
Binder: LLGRDSFEV [LLGRDSFEV mp53.261]

IC50 (HLA-A*0206 [4]): 561 nM
Binder: CTTIHYNYM [p53.229 CTTIHYNYM]

IC50 (HLA-A*3101): 7500 nM
IC50 (HLA-A*0301): 846 nM
Binder: KVF[Abu]QLAK [1371.18 KVFBQLAK p53.132.V2B4]

IC50 (HLA-A*6801): 11.4 nM
IC50 (HLA-A*3101): 621 nM
IC50 (HLA-A*0301): 1000 nM
IC50 (HLA-A*1101): 25 nM
Binder: SV[Abu]MGGMNRR [1371.27 SVBMGGMNRR p53.240.V2B3]

IC50 (HLA-A*0203): 83 nM
Binder: HLIRVEGNLRV [p53.193 HLIRVEGNLRV]

IC50 (HLA-A*6801): 2500 nM
IC50 (HLA-A*1101): 200 nM
Binder: RV[Abu]A[Abu]PGRDRK [1371.31 RVBABPGRDRK p53.273.B3B5K11]

binding affinity ratio (IC50 of standard peptide / IC50 of test peptide) (HLA-B*0702 [2]): 0.007 ratio
Binder: LPENNVLSPL [p53 peptide LPENNVLSPL (position 26, 10 amino acids)]

binding affinity ratio (IC50 of standard peptide / IC50 of test peptide) (HLA-B*0702 [2]): 0.0028 ratio
Binder: MPEAAPPV [p53 peptide MPEAAPPV (position 66, 8 amino acids)]

binding affinity ratio (IC50 of standard peptide / IC50 of test peptide) (HLA-B*0702 [2]): 0.0041 ratio
Binder: TPAAPAPA [p53 peptide TPAAPAPA (position 81, 8 amino acids)]

binding affinity ratio (IC50 of standard peptide / IC50 of test peptide) (HLA-B*0702 [2]): 0.0038 ratio
Binder: LPSQAMDDL [p53 peptide LPSQAMDDL (position 35, 9 amino acids)]
